In general, Kd refers to a measure of binding affinity in units of concentration. One may read the stoichiometry N as a count of units in the complex or per binding partner.

Here are results for three molecules from publication PMC8509203, “Members of the GADD45 Protein Family Show Distinct Propensities to form Toxic Amyloid-Like Aggregates in Physiological Conditions” (International Journal of Molecular Sciences, 2021).

In series [1] the target is MKK7 kinase domain (Homo sapiens) (UniProt O14733). Put plainly: SPR. The note with it: cited from earlier work.
Series [2] deals with the molecule itself. Put plainly: SEC-MALS; SEC-LS, Superdex S200 10/30 with miniDAWN TREOS; 0.5-1.0 mg loaded; 20 mM Tris-HCl pH 7.5, 100 mM NaCl, 5 mM DTT, 5% glycerol (the results and the legend name only 5 mM DTT in 20 mM Tris-HCl pH 7.5); oligomeric state of the native protein. A general note: Size exclusion chromatography separates by hydrodynamic size, large species first.

In series [3] the target is T1, kinase domain of human MKK7 (mitogen-activated protein kinase kinase 7) (human, UniProt O14733 120-380).
T1 construct: MKK7, human, kinase domain; also called MKK7_KD; source: recombinant, obtained as His-fusion protein as previously reported
T1 sequence (looked up): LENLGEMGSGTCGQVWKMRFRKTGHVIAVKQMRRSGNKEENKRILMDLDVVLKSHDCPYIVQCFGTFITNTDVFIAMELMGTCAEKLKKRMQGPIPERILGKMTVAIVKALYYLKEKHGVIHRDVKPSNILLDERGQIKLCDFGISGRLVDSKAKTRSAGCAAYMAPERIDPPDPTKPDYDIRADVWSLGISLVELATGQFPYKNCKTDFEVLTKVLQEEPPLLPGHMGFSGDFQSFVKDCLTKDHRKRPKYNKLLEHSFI
Put plainly: BLI; biotinylated GADD45 proteins immobilised on super streptavidin (SSA) biosensors (2.5 nm), Octet RED96; MKK7_KD in solution at 9-300 nM; 0.01 M HEPES pH 7.4, 0.15 M NaCl, 3 mM EDTA, 0.005% Surfactant P20, 2 mM DTT; 1:1 binding model. The note with it: both partners purified. Background: In BLI a coated tip is dipped into the sample, and binding shifts an interference pattern.

Take GADD45β (from UniProt O75293): in series [1], the Kd was 6 nM.

B1: GADD45γ (growth arrest and DNA damage-inducible 45 gamma) (natural protein, human, UniProt O95257 1-159, looked up)
chain: MTLEEVRGQDTVPESTARMQGAGKALHELLLSAQRQGCLTAGVYESAKVLNVDPDNVTFCVLAAGEEDEGDIALQIHFTLIQAFCCENDIDIVRVGDVQRLAAIVGAGEEAGAPGDLHCILISNPNEDAWKDPALEKLSLFCEESRSVNDWVPSITLPE
modifications: biotin (EZ-Link Sulfo-NHS-LC-Biotinylation Kit), in the BLI experiment only
notes: GADD45γ, human; gene purchased from Sigma Aldrich, cloned into pETM-13 with BamHI and XhoI; Dimeric by SEC-LS; The same construct was used without biotin in SEC-LS and biotinylated in BLI; source: E. coli BL21(DE3), purified (Ni2+-NTA, Superdex 200 SEC)
B1: the “stoichiometry N” value in series [2] stood at 2.

B2: GADD45β (growth arrest and DNA damage-inducible 45 beta) (natural protein, human, UniProt O75293 1-160, looked up)
chain: MTLEELVACDNAAQKMQTVTAAVEELLVAAQRQDRLTVGVYESAKLMNVDPDSVVLCLLAIDEEEEDDIALQIHFTLIQSFCCDNDINIVRVSGMQRLAQLLGEPAETQGTTEARDLHCLLVTNPHTDAWKSHGLVEVASYCEESRGNNQWVPYISLQER
modifications: biotin (EZ-Link Sulfo-NHS-LC-Biotinylation Kit), in the BLI experiment only
notes: GADD45β, human; cloned into pET-28a+ as previously reported; Monomeric by SEC-LS; The same construct was used without biotin in SEC-LS and biotinylated in BLI; also called Human GADD45β; source: E. coli BL21(DE3), purified (Ni2+-NTA, Superdex 200 SEC)
On to B2, for which the affinity in series [3], expressed as Kd, was 2 nM.
